Experimental data published in publication doi:10.1101/693663 (bioRxiv, 2019).
Numbering of substitutions follows the chain as printed. Names may count otherwise.

Experiments:
[1] = molecular target: ASK2(1216–1288), C-terminal SAM domain of ASK2 (human) (UniProt O95382); test: AUC
[2] = molecular target: ASK1(1290–1374), C-terminal SAM domain of ASK1 (human) (UniProt Q99683); test: SAXS
GST-ASK2 SAM domain = molecular target: T1, GST-ASK2 SAM domain (human, UniProt O95382 1216-1288); test: pull-down
T1 sequence (looked up): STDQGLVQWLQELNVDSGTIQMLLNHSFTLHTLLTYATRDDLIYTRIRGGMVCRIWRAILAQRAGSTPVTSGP

SAXS = molecular target: the molecule itself; test: SAXS
SEC = molecular target: the molecule itself; test: SEC

Work on “ASK2(1216–1288), C-terminal SAM domain of ASK2 (from UniProt O95382 1216-1288) (domain or fragment)” yielded a stoichiometry N [1] of 2.

For “ASK1(1290–1374), C-terminal SAM domain of ASK1 (from UniProt Q99683 1290-1374) (domain or fragment)”, the stoichiometry N [2] was 2.

B1: ASK3(1241–1313), C-terminal SAM domain of ASK3 (domain or fragment, human, UniProt Q6ZN16 1241-1313, looked up)
chain: DKELIDWLRLQGADAKTIEKIVEEGYTLSDILNEITKEDLRYLRLRGGLLCRLWSAVSQYRRAQEASETKDKA
With B1 the binding result (GST-ASK2 SAM domain) was “binds” and the “stoichiometry N” value (SAXS) was 6.

B2: ASK3 SAM domain K1242E (domain or fragment, human, UniProt Q6ZN16 1241-1313, looked up)
chain: B1 chain with K2E
B2: binds (SEC).

B3: ASK3 SAM domain V1262N (domain or fragment, human, UniProt Q6ZN16 1241-1313, looked up)
chain: B1 chain with V22N
B3: binds (SEC).

B4: ASK3 SAM domain Q1304A (domain or fragment, human, UniProt Q6ZN16 1241-1313, looked up)
chain: B1 chain with Q64A
B4: binds (SEC).
